Laboratory results as given in patent publication US20240368279A1 (SHANGHAI SINOBAY BIOTECHNOLOGY, published 2024).

B1: Hu004-65 antibody (full-length human IgG1, kappa) (antibody, V domains shown)
VH: EVQLVESGGGLVQPGGSLRLSCAASGFTFSGYGMSWVRQAPGKGLEWVATITSGGTYTYYPDSVKGRFTISRDNAKNSLYLQMNSLRAEDTAVYYCARSLAGNAMDYWGQGTLVTVSS
VL: DIQMTQSPSSLSASVGDRVTITCRASQSITKSLNWYQQKPGKAPRLLIRVASTLQSGVPSRFSGSGSGTDFTLTISSLQPEDFATYYCQHSYSFGQGTKLEIT
notes: also called candidate antibody Hu004-65; monoclonal antibody Hu004-65
B2: Hu004-101 antibody (full-length human IgG1, kappa) (antibody, V domains shown)
VH: EVQLVESGGGLVQPGGSLRLSCAASGFTFSGYGMSWVRQAPGKGLEWVATITSGGTYTYYPDSVKGRFTISRDNAKNSLYLQMNSLRAEDTAVYYCARSLAGNAMDYWGQGTLVTVSS
VL: DIQMTQSPSTLSASVGDRVTITCRASQSISNWLAWYQQKPGEAPKLLIYKASNLESGVPSRFSGSGSGTEFTLTISSLQPDDFATYYCQQFGTFGQGTKVEIK

Molecular target: human CD47 protein (antigen of the SPR affinity determination) (human, UniProt Q08722 19-139, limits assumed)
Assay: affinity for a human CD47 protein (method not given; SPR in Example 3)

Binder	Kd [nM]
B1	146
B2	320
